Each block holds one compound with its values, some of them ahead of it.
Assays:
[1] = molecular target: T1, αβγ-hENaC (Homo sapiens, UniProt P37088+P51168+P51170); test: Whole-cell patch clamp, WT αβγ-hENaC; format: cell-based
T1 construct: expressed in transfected cells; host or cells: HEK-293
T1 sequence (P37088 1-669): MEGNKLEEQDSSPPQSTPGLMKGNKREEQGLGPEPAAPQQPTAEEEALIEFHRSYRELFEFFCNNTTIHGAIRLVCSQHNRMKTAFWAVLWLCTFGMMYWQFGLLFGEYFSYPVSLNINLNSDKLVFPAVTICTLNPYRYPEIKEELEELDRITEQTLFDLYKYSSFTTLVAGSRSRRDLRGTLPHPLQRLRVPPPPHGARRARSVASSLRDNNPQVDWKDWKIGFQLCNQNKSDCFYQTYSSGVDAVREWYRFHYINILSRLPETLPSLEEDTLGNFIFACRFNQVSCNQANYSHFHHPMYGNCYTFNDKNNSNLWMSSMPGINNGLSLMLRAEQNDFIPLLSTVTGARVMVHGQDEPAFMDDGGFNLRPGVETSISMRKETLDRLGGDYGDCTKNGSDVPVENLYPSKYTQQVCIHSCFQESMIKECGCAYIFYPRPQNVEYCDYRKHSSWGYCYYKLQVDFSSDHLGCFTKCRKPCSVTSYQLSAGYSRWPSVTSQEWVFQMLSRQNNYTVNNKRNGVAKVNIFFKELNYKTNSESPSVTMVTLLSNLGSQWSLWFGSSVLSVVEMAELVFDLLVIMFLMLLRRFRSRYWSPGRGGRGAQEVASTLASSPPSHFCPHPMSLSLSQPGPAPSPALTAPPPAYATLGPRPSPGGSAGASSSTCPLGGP
T1 sequence (P51168 1-640 partner): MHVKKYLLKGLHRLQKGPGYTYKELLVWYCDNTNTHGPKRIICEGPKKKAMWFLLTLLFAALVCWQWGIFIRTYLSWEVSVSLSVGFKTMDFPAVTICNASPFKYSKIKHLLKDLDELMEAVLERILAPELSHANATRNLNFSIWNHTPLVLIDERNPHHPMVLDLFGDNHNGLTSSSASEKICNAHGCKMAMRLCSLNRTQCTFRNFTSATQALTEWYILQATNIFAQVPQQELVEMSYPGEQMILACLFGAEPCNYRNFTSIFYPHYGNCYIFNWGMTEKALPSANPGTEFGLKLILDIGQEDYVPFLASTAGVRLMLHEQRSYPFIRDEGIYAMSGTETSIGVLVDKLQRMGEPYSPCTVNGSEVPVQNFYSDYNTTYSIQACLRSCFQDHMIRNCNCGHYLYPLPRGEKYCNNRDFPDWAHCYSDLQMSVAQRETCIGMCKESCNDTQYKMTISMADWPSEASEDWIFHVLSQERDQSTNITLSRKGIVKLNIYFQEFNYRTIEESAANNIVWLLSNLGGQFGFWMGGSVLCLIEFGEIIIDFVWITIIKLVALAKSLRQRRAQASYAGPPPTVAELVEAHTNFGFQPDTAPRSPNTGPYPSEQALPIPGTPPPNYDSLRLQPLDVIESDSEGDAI
T1 sequence (P51170 1-649 partner): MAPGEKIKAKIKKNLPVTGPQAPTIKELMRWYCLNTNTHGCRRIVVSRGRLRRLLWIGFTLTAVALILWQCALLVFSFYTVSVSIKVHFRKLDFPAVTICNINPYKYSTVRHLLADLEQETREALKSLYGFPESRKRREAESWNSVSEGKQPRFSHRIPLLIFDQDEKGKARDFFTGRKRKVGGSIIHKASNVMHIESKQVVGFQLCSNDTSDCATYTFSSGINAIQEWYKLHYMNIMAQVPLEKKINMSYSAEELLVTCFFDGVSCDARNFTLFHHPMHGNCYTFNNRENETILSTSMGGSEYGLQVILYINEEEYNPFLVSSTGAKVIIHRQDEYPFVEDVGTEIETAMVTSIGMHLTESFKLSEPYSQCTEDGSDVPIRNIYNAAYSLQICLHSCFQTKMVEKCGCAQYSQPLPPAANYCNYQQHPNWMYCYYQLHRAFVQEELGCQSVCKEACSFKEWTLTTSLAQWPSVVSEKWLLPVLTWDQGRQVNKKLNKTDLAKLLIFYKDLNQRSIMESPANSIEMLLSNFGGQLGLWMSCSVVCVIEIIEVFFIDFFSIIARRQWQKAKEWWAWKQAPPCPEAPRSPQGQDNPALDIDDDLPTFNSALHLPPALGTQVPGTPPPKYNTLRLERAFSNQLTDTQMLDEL
Description: Point mutations of α-, β-, γ- and δ-hENaC and PHA1B frameshift mutations of α-hENaC were prepared with the QuikChange Lightning Site-Directed Mutagenesis Kit (Agilent Technologies, CA, USA). Mutagenic primers were designed individually with the Primer Design Program provided on the producer’s website or for the frameshift mutations the same base changes as reported in patients (see Table 2) were performed. Primers were ordered from Sigma-Aldrich, Vienna, Austria.
(§1) HEK-293 cells were transfected 1 day after cell seeding using X-tremeGENE HP DNA transfection reagent (Roche Diagnostics, Mannheim, Germany) according to the manufacturer’s protocol. A set of WT or mutant αβγ- or δβγ-hENaC, or α-, β-, γ-, or δ-hENaC alone was used, and the ratio of DNA to transfection reagent was 1:3. The expression was highest 48–72 h after transfection.
(§2) Electrophysiological experiments were performed as described in detail by Shabbir et al. ([16]). […] Currents were recorded with the patch clamp method in the whole-cell mode. The chamber contained 1 ml of the bath solution of the following composition (in mM): 145 NaCl, 2.7 KCl, 1.8 CaCl2, 2 MgCl2, 5.5 glucose, and 10 HEPES, adjusted to pH 7.4 with 1 M NaOH solution. Micropipettes were pulled from thin-walled borosilicate glass capillaries (Harvard Apparatus, Holliston, MA, USA) with a DMZ Zeitz Puller to obtain electrode resistances ranging from 2 to 5 MΩ. The pipette solution contained (in millimolars): 135 potassium methane sulfonate, 10 KCl, 6 NaCl, 1 Mg2ATP, 2 Na3ATP, 10 HEPES, and 0.5 EGTA, adjusted to pH 7.2 with 1 M KOH solution. Chemicals for pipette and bathing solutions were supplied by Sigma-Aldrich (Vienna, Austria). Electrophysiological measurements were carried out with an Axopatch 200B patch clamp amplifier (Axon Instruments, CA, USA). Capacity transients were canceled, and series resistance was compensated. Whole-cell currents were filtered at 5 kHz and sampled at 10 kHz. Data acquisition and storage were processed directly to a PC equipped with pCLAMP 10.2 software (Axon Instruments, CA, USA). […]

[2] = molecular target: T2, δ-hENaC (Homo sapiens, UniProt P51172); test: Whole-cell patch clamp, δ-hENaC alone; format: cell-based; conditions: TNF, mean ± S.E., n = 5, p < 0.001 vs solnatide
T2 construct: expressed in transfected cells; host or cells: HEK-293
T2 sequence (P51172 1-638 isoform P51172-1): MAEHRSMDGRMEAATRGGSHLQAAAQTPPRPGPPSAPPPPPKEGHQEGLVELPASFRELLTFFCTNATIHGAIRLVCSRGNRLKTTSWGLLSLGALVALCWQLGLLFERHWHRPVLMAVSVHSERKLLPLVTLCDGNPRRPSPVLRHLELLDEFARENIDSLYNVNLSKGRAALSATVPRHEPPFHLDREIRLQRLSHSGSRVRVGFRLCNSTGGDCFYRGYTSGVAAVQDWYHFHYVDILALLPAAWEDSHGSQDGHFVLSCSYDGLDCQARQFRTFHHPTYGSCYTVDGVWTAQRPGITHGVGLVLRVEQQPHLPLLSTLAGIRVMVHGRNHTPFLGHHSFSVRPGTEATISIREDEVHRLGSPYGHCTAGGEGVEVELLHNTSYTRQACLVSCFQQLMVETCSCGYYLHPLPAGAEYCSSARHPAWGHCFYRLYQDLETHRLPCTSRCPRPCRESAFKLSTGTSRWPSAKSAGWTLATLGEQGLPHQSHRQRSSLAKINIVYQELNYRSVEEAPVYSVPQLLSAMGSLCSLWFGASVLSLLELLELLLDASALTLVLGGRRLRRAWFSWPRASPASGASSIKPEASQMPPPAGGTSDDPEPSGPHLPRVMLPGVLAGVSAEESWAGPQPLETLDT
Description: as §1
as §2, with “USA).” for “USA). Capacity transients were canceled, and series resistance was compensated. Whole-cell currents were filtered at 5 kHz and sampled at 10 kHz. Data acquisition and storage were processed directly to a PC equipped with pCLAMP 10.2 software (Axon Instruments, CA, USA).”

[3] = molecular target: T3, α-hENaC (Homo sapiens, UniProt P37088); test: Whole-cell patch clamp, α-hENaC alone; format: cell-based; conditions: TNF, -100 mV, mean ± S.E., n = 5, p < 0.001 vs solnatide
T3 construct: expressed in transfected cells; host or cells: HEK-293
T3 sequence (P37088 1-669): T1 sequence (P37088 1-669)
Description: as §1
as §2, with “USA).” for “USA). Capacity transients were canceled, and series resistance was compensated. Whole-cell currents were filtered at 5 kHz and sampled at 10 kHz. Data acquisition and storage were processed directly to a PC equipped with pCLAMP 10.2 software (Axon Instruments, CA, USA).”

[4] = molecular target: T4, β-hENaC (Homo sapiens, UniProt P51168); test: Whole-cell patch clamp, β-hENaC alone; format: cell-based; conditions: TNF, mean ± S.E., n = 5
T4 construct: expressed in transfected cells; host or cells: HEK-293
T4 sequence (P51168 1-640): T1 sequence (P51168 1-640 partner)
Description: as §1
as §2, with “USA).” for “USA). Capacity transients were canceled, and series resistance was compensated. Whole-cell currents were filtered at 5 kHz and sampled at 10 kHz. Data acquisition and storage were processed directly to a PC equipped with pCLAMP 10.2 software (Axon Instruments, CA, USA).”

[5] = molecular target: αN511Qβγ-ENaC (human) (UniProt P37088)
[6] = molecular target: αN232Qβγ-ENaC (human) (UniProt P37088)
[7] = molecular target: δ-hENaC expressed alone (human) (UniProt P51172)
[8] = molecular target: α-hENaC expressed alone (human) (UniProt P37088)
[9] = molecular target: γ-hENaC expressed alone (human) (UniProt P51170)
[10] = molecular target: wild-type αβγ-hENaC (amiloride-sensitive epithelial sodium channel) (human) (UniProt P37088)
[11] = molecular target: β-hENaC expressed alone (human) (UniProt P51168)
[12] = molecular target: αR448fsβγ-ENaC (human) (UniProt P37088)

Compound: N=C(N)NC(=O)c1nc(Cl)c(N)nc1N [amiloride, reference compound]
- Block of induced current by amiloride ([1]; 10 µM amiloride, TNF- or solnatide-induced current): blocked by 10 µM amiloride within a few pulses

- EC50 [2]: 5 ± 0.3 nM
- EC50 ([1]; TNF, amiloride-sensitive Na^+ current, αβγ-hENaC in HEK-293, whole-cell, -100 mV, 19–22°C, bath pH 7.4, cumulative addition, mean ± S.E., n = 5, p < 0.001 vs solnatide): 6.7 ± 2.1 nM
- EC50 [3]: 4.2 ± 1.9 nM
- EC50 [4]: 18.8 ± 2.9 nM
Compound: TNF: Tumor necrosis factor (CAS Registry Number 94948-59-1, Sigma-Aldrich, Austria)

- maximal TNF-induced current, whole-cell patch clamp, transfected HEK-293 cells [5]: 50.7 pA
- maximal TNF-induced current, whole-cell patch clamp, transfected HEK-293 cells [6]: 84.7 pA
- EC50 of TNF for activating amiloride-sensitive Na+ current, whole-cell patch clamp at -100 mV, transfected HEK-293 cells [7]: 5 nM
- maximal TNF-induced amiloride-sensitive Na+ current, whole-cell patch clamp at -100 mV, transfected HEK-293 cells [7]: 27.8 pA
- EC50 of TNF for activating amiloride-sensitive Na+ current, whole-cell patch clamp at -100 mV, transfected HEK-293 cells [8]: 4.2 nM
- maximal TNF-induced amiloride-sensitive Na+ current, whole-cell patch clamp at -100 mV, transfected HEK-293 cells [8]: 48.1 pA
- maximal TNF-induced amiloride-sensitive Na+ current, whole-cell patch clamp at -100 mV, transfected HEK-293 cells [9]: 8 pA
- EC50 of TNF for activating amiloride-sensitive Na+ current, whole-cell patch clamp at -100 mV, transfected HEK-293 cells [10]: 6.7 nM
- maximal TNF-induced amiloride-sensitive Na+ current, whole-cell patch clamp at -100 mV, transfected HEK-293 cells [10]: 162 pA
- EC50 of TNF for activating amiloride-sensitive Na+ current, whole-cell patch clamp at -100 mV, transfected HEK-293 cells [11]: 18.8 nM
- maximal TNF-induced amiloride-sensitive Na+ current, whole-cell patch clamp at -100 mV, transfected HEK-293 cells [11]: 18.5 pA
- fold increase of current (TNF-induced/amiloride-sensitive current), whole-cell patch clamp, transfected HEK-293 cells [12]: 3.5 fold
Compound: Tumor necrosis factor (TNF) (ligand)

— PMC5447021, “TNF Lectin-Like Domain Restores Epithelial Sodium Channel Function in Frameshift Mutants Associated with Pseudohypoaldosteronism Type 1B” (Frontiers in Immunology, 2017)
